The source of these data is publication PMC8562373 (Biochemistry (Moscow) Supplement. Series B, Biomedical …, 2021).

The experiment addresses SARS-CoV-2 protein S receptor-binding domain (RBD), original Wuhan strain (SARS-CoV-2, UniProt P0DTC2 331-524). In words: MST.

On to IEEQAKTFLDKFNHQAEDLFYK [h1-Mpa peptide (h1 with Lys31 modified with 3-mercaptopropionic acid)], for which the Kd was over 1000 µM.

In turn, DKWSAFLKECSTIAQIYPLQEI [h2-Cys peptide (h2 with Gln76 replaced with Cys76)] gave a Kd of over 1000 µM.

As a reminder, the Kd is the equilibrium constant for the complex coming apart. A high value points to lower affinity.
